Data from EP3581587A1 (Shanghai Benemae Pharmaceutical Corporation, dated 2019).
Changes are numbered by the printed parent chain.

B1: h-34F8 (antibody, human IgG4, V domains shown)
VH: QVQLQESGPGLVKPSETLSLTCTVSGFSLTTYHVHWVRQPPGKGLEWIGIMWRDGDTYYNSSLKSRVTISRDTSKNQVSLKLSSVTAADTAVYFCARGGTLTTPFTYWGQGTLVTVSS
VL: DVVLTQTPLSLPVTPGEPASISCRSSQSLESRDGNTYLEWYLQKPGQSPQVLLYGVSNRLSGVPDRFSGSGSGTDFTLKISRVEAEDVGVYYCFQATHGPFTFGQGTKLEIKR
B2: h-42A5 (antibody, human IgG4, V domains shown)
VH: QVTLKESGPVLVKPTETLTLTCTVSGFSLTSYHLHWIRQPPGKALEWMGLMWRDGDTSYNSRLKSRLTISRDTSKSQVVLTMTNMDPVDTATYYCARGMTLATPFLYWGQGTLVTVSS
VL: B1 VL with P12S, E17Q, R32S, V51L, L53I, L60F, V88L, H98R, G99D
B3: h-19F6 (antibody, human IgG4, V domains shown)
VH: EVQLVESGGGLVQPGRSLRLSCTASGFTFSKYAMSWVRQAPGKGLEWVSAINYDGSTTYYADSVKGRFTLSRDNSKNTLYLQMNSLRAEDTAVYYCARHPFNNFGIWFAYWGQGTLVTVS
VL: QFQLTQPSSVSASVGDRVTITCERSSGDIGDSYVSWYQQKPGQPPKNVIYADDQRPSGVPDRFSGSIDGSGNSASLTISSLQAEDAADYFCQSYDSNIDFNPVFGGGTKLEVK

target: human activated coagulation factor XI (FXIa) (human, UniProt P03951 19-625); experiment: cell-based or functional assay

Row | Binder | apparent Ki, inhibition of FXIa cleavage of chromogenic substrate S-2366
1 | B1 | 2.08 nM
2 | B2 | 1.43 nM
3 | B3 | 0.67 nM
